Experimental data from patent US20230257435A1, “Wound Healing Composition and Uses Thereof” (AGENCY FOR SCIENCE, TECHNOLOGY AND RESEARCH, priority 2020, published 2023).

Legend:
mouse skin wounds = assay: Cytokine and chemokine expression in mouse skin wounds; type: in vivo
Experimental: The photographs of a representative wound for each condition is shown above. The respective p values for the selected group of significant genes are represent in tabular form (n=3 mice per group, Multiple t tests). (b) Western blot analysis in the mouse skin treated as in (a) showing the protein expression of selected proteins. GAPDH served as a loading control (n=2 independent mice wounds were analyzed for each group).
Indicated cells post-manipulation were washed twice with cold Phosphate buffered saline (PBS) and lysed with cold 1% NP-40 lysis buffer supplemented with 1× protease inhibitor cocktail (Roche Applied Biosciences) for 15 mins at 4° C. […] The density of the various bands was quantified using the Image-J software.
Total RNA was extracted from indicated cells using Qiagen RNeasy mini kit as per the manufacturer's recommended protocol. […] For RNA-sequencing, the RNA quality was analyzed on a Bioanalyzer instrument (Agilent) using the Agilent RNA 6000 Pico Kit. […] Purified libraries were quantified by qPCR (KAPA Library Quantification Kit for Illumina, Roche). […] The condition of sequencing was represented by a single read high output run at 75 bp read length. Raw reads from fastq files were aligned to the hg38 genome using STAR 2.6.1d. […] The relative number of reads mapping to each gene was quantified with htseqcount on features from the gtf file gencode.v29.annotation.gtf. […]

pMLC = assay: Force transmission via ligand conjugated magnetic beads; type: cell-based, human
Experimental: The ligands were conjugated to 4.5 μm epoxide paramagnetic beads (Dynabeads M-450 Epoxy, Thermo Fisher Scientific) according to the manufacturer's manual. Briefly, the beads were washed twice in 0.1 M sodium phosphate buffer, pH 7.4. Subsequently. 8×10^7 beads were conjugated to 20 μg sAgrin, BSA and FN per in 0.1 M sodium phosphate buffer at pH 7.4 for 16-18 h at 4° C. with gentle rotation throughout. The degree of protein conjugation to the beads was verified by a reducing SDS-PAGE gel analysis using a subset of ligand conjugated beads. The remaining beads were washed and subsequently stored in 0.1% BSA-phosphate buffered saline (PBS) pH 7.4 at 4° C. They were subsequently suspended in medium and added on the cells for 30 min at 37° C. After a brief wash with PBS to remove excess non-adherent beads, the cells were placed under a permanent neodymium magnet (J Magnetics, USA) at a distance of 6 mm apart for another 30 min that allowed a vertical tensile force in the magnitudes of ˜200 pN on the beads. The cells were then fixed in 4% paraformaldehyde, permeabilized and processed for immunofluorescence.

HaCaT cells = assay: Collective migration on soft/stiff substrates (stencil barrier); type: cell-based, human
Experimental: Tissue culture plates were coated with Col-T-gel (Fischer Scientific) of stiffness ranging from 0.8 KPa (soft) to 30 KPa (stiff) as per manufacturer recommendations and allowed to solidify for 40 min at 37° C. inside tissue culture incubators. Some experiments were performed with cells seeded on the poly-hydrogel plates of defined stiffness: 0.2 kPa and 16 kPa soft and hard polyhydrogels, respectively (CytoSoft, Advanced Biomatrix, Inc.,). The determination of stiffness of silicone substrates were done by the manufacturer as per previously published protocols. For certain experiments, indicated amounts of sAgrin was incorporated into the 0.8 KPa collagen gels before gelation process. Upon gelation, trypsinized cells or excised mouse skin explants were plated onto the gels of different stiffness either alone or containing sAgrin. The cells/tissues were incubated under standard culture condition with 500 μl recommended culture medium for the indicated days. The crossbow shaped micropatterns with fibronectin coated islands were generated by microlithography on a 19.5×19.5 mm coverslide from Cytoo, Inc., France. The micropatterns had surface areas of 800μ^2 or 1600μ^2, respectively. Fifty thousand cells after initial siRNA treatment was placed on the micropatterns for 4-6 h before processing them for immunofluorescence. For some experiments, 10 μg/ml sAgrin was added on the slides 18 h prior to the addition of cells.
A confluent monolayer of control and Agrin depleted cells in a 6-well plate was subjected to a unidirectional scratch using a 20 μl pipette tip. This was followed by washing with 1×PBS at room temperature and incubation in complete culture media at 37° C. and 5% CO2 with or without sAgrin used as indicated. Phase contrast images of the wound area were taken periodically at the indicated time-points. For some wound-healing migration assays, keratinocytes were cultured on either soft or stiff substrates within a stencil barrier (Nalge Nunc., Inc) for 18 h. Upon removal of the barrier, the cells were allowed to migrate and imaged using an Axiovert 200 inverted microscope at indicated time-points.

B1: sAgrin: C-terminus recombinant Agrin fragment containing 8 amino acid 'Z8' insert and LG3 domain (SEQ ID NO: 7), His-tagged, expressed in E. coli (protein)
chain: DTLAFDGRTFVEYLNAVTESELANEIPVEKALQSNHFELSLRTEATQGLVLWSGKATERADYVALAIVDGHLQLSYNLGSQPVVLRSTVPVNTNRWLRVVAHREQREGSLQVGNEAPVTGSSPLGATQLDTDGALWLGGLPELPVGPALPKAYGTGFVGCLRDVVVGRHPLHLLEDAVTKPELRPCPTP
modifications: His tag
For B1, the “protein expression of TGF-β1, VEGF-A and MCP-1” value (mouse skin wounds; vs BSA and Collagen) was “augmented protein expression(s) of TGF-β1, VEGF-A and MCP-1”, the “mRNA of TGF-β1, VEGF-A, MCP-1, MIP-1β and MIP-2” value (mouse skin wounds; within 48 h post-injury, vs BSA or Collagen) was “significantly induced” and the “pMLC recruitment with increasing sAgrin coated beads” value (pMLC; 30 min post-wound scratch) was “greater pMLC recruitment at 30 min post-wound scratch in a dose-dependent fashion”. The “pMLC intensity in MMP12 depleted cells after force transmission” value (pMLC; 30 min post-wounding) was “unable to rescue the reduced pMLC intensity”, the “pMLC recruitment near beads in control cells with exogenous force” value (pMLC; 30 min post-wounding) was “further surged pMLC recruitment” and the “pMLC recruitment upon force in Agrin depleted cells (confocal)” value (pMLC; 30 min post-wounding, compared to FN or BSA beads) was “enhanced pMLC recruitment upon force application”. The “MMP12 recruitment in pMLC activated regions” value (pMLC; Agrin depleted cells, force transmission) was “effectively enhanced MMP12 recruitment in pMLC activated regions”, the “increase of pMLC around the bead vicinity” value (pMLC; Agrin depleted cells, force with sAgrin beads 30 min) was ~2 folds and the “activated integrin β1-Agrin localization” value (pMLC; control migrating keratinocytes, ligand beads, force) was “substantially increased activated integrin β1-Agrin localization”. For the same molecule, the “rescue of reduced pMLC in Agrin depleted cells by force through ligand beads” value (pMLC; siAgrin cells) was “only restored by force transduced by sAgrin”, the “collective migration rates on compliant substrates” value (HaCaT cells; 0.8 kPa, sAgrin 10 μg/ml, 24 h) was “significantly promoted migration rates that was comparable to those in stiff ECM alone” and the “K17 expressing leader cells on soft substrates” value (HaCaT cells; soft substrate, sAgrin 10 μg/ml, 4 h) was “stimulated collective migration by activating K17 expressing leader cells”. For the same molecule, the “fraction of K17 expressing leader cells in Agrin depleted cells” value (HaCaT cells; stiff ECM with sAgrin, 4 h) was “significantly restored”, the “migratory potential of Agrin depleted keratinocytes on stiff substrates” value (HaCaT cells; stiff matrix with 10 μg/ml sAgrin) was “significantly rescued” and the “K17 expressing migrating cells after MMP12 knockdown” value (HaCaT cells; stiff substrates (30 kPa), 20 μg/ml sAgrin) was “not restored by the nourishment of sAgrin”.
